Series [1] concerns the target Chaetomium thermophilum NatB complex (CtNaa25 with CtNaa20) (Chaetomium thermophilum).
The target of series [2] is Chaetomium thermophilum Naa20, catalytic subunit of NatB, full length (Chaetomium thermophilum).
The target of series [3] is Chaetomium thermophilum Naa25, auxiliary subunit of NatB, full length (Chaetomium thermophilum). The series is described as follows: SEC-MALS; Superdex 200 10/300 in buffer G (20 mM HEPES pH 7.5, 200 mM NaCl); CtNatB (0.12 mg, co-expressed and purified as a complex), CtNaa25 (0.13 mg) and CtNaa20 (0.1 mg) injected one after the other. On the technique in general: SEC sorts molecules by how far they enter the pores of the column.

The next series addresses T1, CtNatB (Thermochaetoides thermophila, UniProt G0SGG4).
T1 construct: gene CTHT_0066240; co-expressed in E. coli Rosetta II (DE3); CtNaa20 with C-terminal His6, CtNaa25 with TEV-cleavable N-terminal His6; with N-alpha-acetyltransferase 25 (N-terminal acetyltransferase B complex auxiliary subunit NAA25)
The series is described as follows: nanoDSF thermal shift. As to conditions: 1/64 protein/ligand; buffer G pH 7.5. It counts as binding.

For series [4], the target named is T2, CtNaa20 (Thermochaetoides thermophila, UniProt G0SGG4).
T2 construct: gene CTHT_0066240; full length, C-terminal His6 (pET21d), E. coli Rosetta II (DE3); residues 2-190 built in the crystal structure
The series is described as follows: nanoDSF thermal shift. As to conditions: varying ligand excess; buffer G pH 7.5. It counts as binding. On the technique in general: In DSF a fluorescence change marks the thermal transition of the protein.

Series [5] addresses Chaetomium thermophilum Naa20 residues 1-166 (predicted GNAT fold) (Chaetomium thermophilum). The series is described as follows: ITC; CtNaa20_(1-166) 25-35 uM in the cell, CtNaa25 250-400 uM in the syringe, 20 °C, buffer G (20 mM HEPES pH 7.5, 200 mM NaCl), single-site binding model, triplicates.
Series [6] deals with T3, CtNaa20 (Chaetomium thermophilum, UniProt G0SGG4 1-235).
T3 sequence: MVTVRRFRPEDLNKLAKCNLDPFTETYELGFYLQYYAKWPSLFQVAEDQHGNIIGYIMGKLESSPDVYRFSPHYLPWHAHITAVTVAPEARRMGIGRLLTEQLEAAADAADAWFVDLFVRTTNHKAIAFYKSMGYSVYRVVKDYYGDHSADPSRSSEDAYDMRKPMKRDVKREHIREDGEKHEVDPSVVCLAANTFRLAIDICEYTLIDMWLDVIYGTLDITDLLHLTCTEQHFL
The series is described as follows: EMSA; 5-20 uM protein, 5 uM RNA; 20 mM Tris pH 8, 200 mM NaCl, 10 mM MgCl2, 10 mM KCl, 20% glycerol, 20 C, 30 min; 0.8% agarose gel in 0.5x TB. As to conditions: protein: recombinant; tags: C-terminal His6.

Series [7] addresses T4, Chaetomium thermophilum NatB complex (CtNaa25 with CtNaa20) (Chaetomium thermophilum).
T4 chain: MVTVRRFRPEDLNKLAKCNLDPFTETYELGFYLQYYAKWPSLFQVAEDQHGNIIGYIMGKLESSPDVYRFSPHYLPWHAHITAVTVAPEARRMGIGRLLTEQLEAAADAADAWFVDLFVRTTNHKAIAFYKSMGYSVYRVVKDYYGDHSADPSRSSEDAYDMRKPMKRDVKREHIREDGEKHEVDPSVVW
The series is described as follows: cell-based or functional assay.

The target of series [8] is T4, Chaetomium thermophilum NatB complex …. The series can be described thus: enzyme inhibition kinetics (acetylation microplate assay); 500 nM enzyme; mode of inhibition and inhibitor constant of CoA-Ac-MDEL in the acetylation of MDEL; competitive inhibitor; triplicates. As to conditions: both partners purified.

No end group written: not given here. CoA = coenzyme A

Take MDEL peptide (canonical NatB substrate): the Km for MDEL in the acetylation assay (constant AcCoA, varying MDEL) in series [1] was found to be 232 µM; in [2], 4400 µM.
As usually defined, the stoichiometry N is a count of units in the complex or per binding partner. Regarding “Chaetomium thermophilum Naa20, catalytic subunit of NatB, full length (enzyme)”, the stoichiometry N in series [3] worked out at 1.
Turning to `CC(=O)SCCNC(=O)CCNC(=O)[C@H](O)C(C)(C)COP(=O)(O)OP(=O)(O)OC[C@H]1O[C@@H](n2cnc3c(N)ncnc32)[C@H](O)[C@@H]1OP(=O)(O)O` [AcCoA], at CtNatB, the “Tm without to with ligand” value was 58 to 62 °C. Also, the Tm entry at CtNaa20 [4] was “Binding of both ligands to CtNatB and CtNaa20 is indicated by protein stabilization”.
The Kd is the constant that tells how readily two partners part at equilibrium. Take “Chaetomium thermophilum Naa25, auxiliary subunit of NatB, full length (natural protein)”: in series [5], the Kd is 17.8 nM, the dH was 5.4 kcal/mol and the stoichiometry N was 1.

B1: CtES27 fragment (tip of expansion segment 27) (structured_RNA)
RNA: GGGCCUCUAGCCGGGCAACCGGCCGGCGGCUC
As to B1, the binding result in the series with CtNaa20 [6] is on record as “no binding”.

B2: CoA-Ac-MDEL bisubstrate analog (peptide MDEL joined to coenzyme A through an acetyl bridge) (peptide)
peptide: {CoA-Ac}-MDEL
notes: peptide part of the bisubstrate analog, the canonical NatB substrate MDEL; A tetrapeptide conjugate of 1314 Da; also called MDEL (peptide part M1pD2pE3pL4p); source: synthetic peptide (solid phase), bromo-acetylated and coupled to coenzyme A, purified by reverse phase HPLC
As usually defined, the Ki is the dissociation constant of the complex between target and ligand, obtained from inhibition or displacement. A lower Ki goes with a stronger hold on the target. As to B2, the “half-maximum inhibitor concentration (IC50) of the NatB mediated acetylation of MDEL” value in series [7] amounted to 1560 nM. In addition, the Ki in series [8] was determined as 410 ± 140 nM. In series [2], this molecule displayed an IC50 of the inhibition of acetylation by CtNaa20 alone of 6500 nM.

Values taken from paper PMC7782713, “Structural basis of Naa20 activity towards a canonical NatB substrate” (Communications Biology, 2021).
